Test results as given in publication PMC2669960 (The EMBO Journal, 2009).
Where two headings read alike, the source gives them in different places.

B1: His–Ska1 (N), tag cleaved (domain or fragment)
chain: MASSDLEQLCSHVNEKIGNIKKTLSLRNCGQEPTLKTVLNKIGDEIIVINELLNKLELEIQYQEQTNNSLKELCESLEEDYKDIEHLKENVPSHLPQVTVTQSCVKGSDLDPEEPIKVEEPEPVKKPPKE
B4: His–Ska3 (N), tag cleaved (domain or fragment)
chain: MDPIRSFCGKLRSLASTLDCETARLQRALDGEESDFEDYPMRILYDLHSEVQTLKDDVNILLDKARLENQEGIDFIKATKVLMEKNSMDIMKIREYFQKYGYSPRVKKNSVHEQEAINSDPELSNCENFQKTDVKDDLSDPPVASSCISEKSPRSP

Legend:
Test in all cases: co-purification
[1] = molecular target: B4
[2] = molecular target: T1, GST–Ska1 (full length), tag cleaved (human, UniProt Q96BD8 1-255)
T1 sequence: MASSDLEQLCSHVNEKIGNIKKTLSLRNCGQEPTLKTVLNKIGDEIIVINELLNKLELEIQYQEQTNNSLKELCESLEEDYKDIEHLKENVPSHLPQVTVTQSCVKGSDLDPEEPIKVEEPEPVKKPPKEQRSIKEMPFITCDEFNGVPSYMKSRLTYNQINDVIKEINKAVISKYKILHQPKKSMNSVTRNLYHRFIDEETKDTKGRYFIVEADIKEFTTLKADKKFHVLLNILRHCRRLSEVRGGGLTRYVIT

[3] = molecular target: T2, His–Ska1 (full length), tag cleaved (human, UniProt Q96BD8 1-255)
T2 sequence: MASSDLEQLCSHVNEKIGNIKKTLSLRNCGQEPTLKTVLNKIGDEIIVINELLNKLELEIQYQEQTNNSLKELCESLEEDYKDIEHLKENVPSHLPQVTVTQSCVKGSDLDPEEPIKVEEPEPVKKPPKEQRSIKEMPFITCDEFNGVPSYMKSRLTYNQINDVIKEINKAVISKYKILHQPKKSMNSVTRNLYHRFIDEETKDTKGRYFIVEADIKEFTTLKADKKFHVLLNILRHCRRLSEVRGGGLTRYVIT

[4] = molecular target: B1
[5] = molecular target: B4; remark: listed apart in the source
[6] = molecular target: T2, His–Ska1 (full length), tag cleaved; remark: listed apart in the source
[7] = molecular target: T1, GST–Ska1 (full length), tag cleaved; remark: listed apart in the source

Does B1 bind [1]?
Result: binds

B2: untagged Ska2 (natural protein)
chain: MEAEVDKLELMFQKAESDLDYIQYRLEYEIKTNHPDSASEKNPVTLLKELSVIKSRYQTLYARFKPVAVEQKESKSRICATVKKTMNMIQKLQKQTDLELSPLTKEEKTAAEQFKFHMPDL
Does B2 bind [2]?
Result: binds

B3: GST–Ska2 (full length), tag cleaved (natural protein)
chain: MEAEVDKLELMFQKAESDLDYIQYRLEYEIKTNHPDSASEKNPVTLLKELSVIKSRYQTLYARFKPVAVEQKESKSRICATVKKTMNMIQKLQKQTDLELSPLTKEEKTAAEQFKFHMPDL
Does B3 bind [3]?
Result: binds

Does B3 bind [4]?
Result: binds

Does B3 bind [5]?
Result: binds

Does B4 bind [6]?
Result: binds

Does B4 bind [7]?
Result: binds
